T1: His-tagged P3028 (human, also: His-tag, terminus and sequence not given here)
T1 construct: in solution at 0.5 ug/mL over the peptide cards; found with anti-His-tag antibody and rabbit anti-mouse peroxidase (rampo); also called PGE73; not shown: His-tag
T1 peptide: VFDEFKPLVEEPQNLIK

No end group written: not given here.

This experiment concerns the target T1, His-tagged P3028. Kind of experiment: PEPSCAN chip ELISA, His-P3028 in solution.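 Further: score is the raw OD at 405 nm from peroxidase colour with ABTS, imaged by CCD camera before and after staining, with wells showing air bubbles set to zero.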
Experimental: After washing, the peroxidase substrate 2,2′-azine-di-3-ethylbenzthiazoline sulfonate (ABTS) and 2 μL of 3% H2O2 were added. The binding capacity of the mAb was measured as a color development at 405 nm (optical density, OD405). The color development was quantified with a charge-coupled device (CCD)—camera and an image processing system.
The OD405-values obtained by a CCD-camera was considered as raw data values (“rampo values,” “rampo units,” or “rampo scores”). […] First the CCD-camera made a picture of the card before peroxidase coloring and then again a picture after the peroxidase coloring. […] These values were copied into an excel file and labeled as a raw data file. One follow-up manipulation was allowed. Sometimes a well can contain an air-bubble resulting in a false-positive value. If manual inspection of the cards detect an air-bubble the value are set to 0 for that well.
With KKSDTFFVKLSLFTER [SEQ ID NO 295], the “RAMPO Score” value turned out to be 393 rampo score.

In the case of KKLDTPFVKLSLFTER [SEQ ID NO 317], the “RAMPO Score” value is 497 rampo score.

As for KKLDTFFVKLSTFTER [SEQ ID NO 358], the “RAMPO Score” value was found to be 437 rampo score.

As to KKLDTFFVKQSLFTER [SEQ ID NO 339], the “RAMPO Score” value stood at 470 rampo score.

Turning to KKLDTFFVKLSIFTER [SEQ ID NO 352], the “RAMPO Score” value was 456 rampo score.

Take KKLDTIFVKLSLFTER [SEQ ID NO 314]: the “RAMPO Score” value turned out to be 466 rampo score.

Consider KKLDTFFVKLSWFTER [SEQ ID NO 360], for which the “RAMPO Score” value stood at 409 rampo score.

Consider KKLDTFFVKISLFTER [SEQ ID NO 335], for which the “RAMPO Score” value amounted to 415 rampo score.

For KKLDTMFVKLSLFTER [SEQ ID NO 315], the “RAMPO Score” value is 467 rampo score.

Turning to KKLETFFVKLSLFTER [SEQ ID NO 299], the “RAMPO Score” value amounted to 417 rampo score.

On to KKLDTFFVKFSLFTER [SEQ ID NO 333], for which the “RAMPO Score” value turned out to be 403 rampo score.

Take KKLDTFFRKLSLFTER [SEQ ID NO 330]: the “RAMPO Score” value was determined as 365 rampo score.

As to KKLWTFFVKLSLFTER [SEQ ID NO 302], the “RAMPO Score” value stood at 443 rampo score.

In the case of KKLDTFFVKTSLFTER [SEQ ID NO 342], the “RAMPO Score” value was 399 rampo score.

In the case of KKLATFFVKLSLFTER [SEQ ID NO 298], the “RAMPO Score” value came to 494 rampo score.

On to KKLDTFLVKLSLFTER [SEQ ID NO 320], for which the “RAMPO Score” value was determined as 517 rampo score.

As for KKLDTTFVKLSLFTER [SEQ ID NO 318], the “RAMPO Score” value turned out to be 481 rampo score.

Regarding KKLDTAFVKLSLFTER [SEQ ID NO 313], the “RAMPO Score” value is 575 rampo score.

With KKLDTFFVKLQLFTER [SEQ ID NO 348], the “RAMPO Score” value came out at 768 rampo score.

Regarding KKLDTVFVKLSLFTER [SEQ ID NO 319], the “RAMPO Score” value worked out at 547 rampo score.

As to KKLDCFFVKLSLFTER [SEQ ID NO 304], the “RAMPO Score” value amounted to 449 rampo score.

As to KKLDTFFVKLMLFTER [SEQ ID NO 346], the “RAMPO Score” value amounted to 744 rampo score.

Consider KKLDTFFVKLSRFTER [SEQ ID NO 356], for which the “RAMPO Score” value was 483 rampo score.

Turning to KKLDTFFVRLSLFTER [SEQ ID NO 331], the “RAMPO Score” value worked out at 374 rampo score.

On to KKLYTFFVKLSLFTER [SEQ ID NO 303], for which the “RAMPO Score” value is 422 rampo score.

KKLDTFFVKGSLFTER [SEQ ID NO 334]: the “RAMPO Score” value was determined as 495 rampo score.

Consider KKLDNFFVKLSLFTER [SEQ ID NO 306], for which the “RAMPO Score” value was determined as 436 rampo score.

Turning to KKLDTFFVKPSLFTER [SEQ ID NO 338], the “RAMPO Score” value is 436 rampo score.

In the case of KKLDTFTVKLSLFTER [SEQ ID NO 324], the “RAMPO Score” value was 517 rampo score.

Turning to KKLDTFFVKLHLFTER [SEQ ID NO 345], the “RAMPO Score” value was 535 rampo score.

For KKVDTFFVKLSLFTER [SEQ ID NO 297], the “RAMPO Score” value turned out to be 377 rampo score.

For KKLDTFFGKLSLFTER [SEQ ID NO 327], the “RAMPO Score” value was determined as 379 rampo score.

For the molecule KKLDTNFVKLSLFTER [SEQ ID NO 316], the “RAMPO Score” value worked out at 446 rampo score.

On to KKLDRFFVKLSLFTER [SEQ ID NO 309], for which the “RAMPO Score” value was found to be 430 rampo score.

Consider KKLDYFFVKLSLFTER [SEQ ID NO 312], for which the “RAMPO Score” value amounted to 425 rampo score.

Take KKLDTFFVKLSVFTER [SEQ ID NO 359]: the “RAMPO Score” value was found to be 545 rampo score.

Regarding KKLDTFQVKLSLFTER [SEQ ID NO 322], the “RAMPO Score” value stood at 511 rampo score.

Turning to KKLDTFFVKLSMFTER [SEQ ID NO 353], the “RAMPO Score” value is 499 rampo score.

As for KKLDTFFVKLSNFTER [SEQ ID NO 354], the “RAMPO Score” value was determined as 462 rampo score.

With KKLDTFFVKLSSFTER [SEQ ID NO 357], the “RAMPO Score” value amounted to 478 rampo score.

As for KKTDTFFVKLSLFTER [SEQ ID NO 296], the “RAMPO Score” value worked out at 451 rampo score.

Take KKLDMFFVKLSLFTER [SEQ ID NO 305]: the “RAMPO Score” value was determined as 475 rampo score.

For KKLDTFMVKLSLFTER [SEQ ID NO 321], the “RAMPO Score” value turned out to be 712 rampo score.

For KKLDTFFVKLNLFTER [SEQ ID NO 347], the “RAMPO Score” value came to 451 rampo score.

Take KKLDTFFVKLTLFTER [SEQ ID NO 349]: the “RAMPO Score” value came out at 520 rampo score.

Turning to KKLDTFFVKLSAFTER [SEQ ID NO 350], the “RAMPO Score” value was determined as 462 rampo score.

Consider KKLDTFFVKASLFTER [SEQ ID NO 332], for which the “RAMPO Score” value is 426 rampo score.

On to KKLITFFVKLSLFTER [SEQ ID NO 300], for which the “RAMPO Score” value amounted to 430 rampo score.

With KKLDTFFVKYSLFTER [SEQ ID NO 344], the “RAMPO Score” value was found to be 382 rampo score.

KKLDTFFVKLSHFTER [SEQ ID NO 351]: the “RAMPO Score” value amounted to 460 rampo score.

For the molecule KKLDTFFPKLSLFTER [SEQ ID NO 329], the “RAMPO Score” value was determined as 456 rampo score.

As to KKLDQFFVKLSLFTER [SEQ ID NO 308], the “RAMPO Score” value stood at 535 rampo score.

For KKLDTFFVKSSLFTER [SEQ ID NO 341], the “RAMPO Score” value was found to be 351 rampo score.

As for KKLDTFFLKLSLFTER [SEQ ID NO 328], the “RAMPO Score” value is 411 rampo score.

For KKLDTFVVKLSLFTER [SEQ ID NO 325], the “RAMPO Score” value came to 527 rampo score.

For the molecule KKLDTFFVKRSLFTER [SEQ ID NO 340], the “RAMPO Score” value was 439 rampo score.

Regarding KKLDPFFVKLSLFTER [SEQ ID NO 307], the “RAMPO Score” value was determined as 427 rampo score.

With KKLDTFFVKVSLFTER [SEQ ID NO 343], the “RAMPO Score” value turned out to be 658 rampo score.

With KKLDTFFVKMSLFTER [SEQ ID NO 336], the “RAMPO Score” value was determined as 460 rampo score.

With KKLDTFFVKLSQFTER [SEQ ID NO 355], the “RAMPO Score” value stood at 651 rampo score.

As for KKLDTFSVKLSLFTER [SEQ ID NO 323], the “RAMPO Score” value was determined as 700 rampo score.

With KKLDTFFFKLSLFTER [SEQ ID NO 326], the “RAMPO Score” value was 358 rampo score.

KKLDSFFVKLSLFTER [SEQ ID NO 310]: the “RAMPO Score” value came to 458 rampo score.

On to KKLDWFFVKLSLFTER [SEQ ID NO 311], for which the “RAMPO Score” value was 418 rampo score.

Consider KKLDTFFVKNSLFTER [SEQ ID NO 337], for which the “RAMPO Score” value stood at 365 rampo score.

Source of the values: patent publication US20170298096A1 (CANIMGUIDE THERAPEUTICS, published 2017).
